Data set [1] relates to HeLa Kyoto. Description: solubility in G1/S (NP-40 vs SDS abundance) (log2 ratio); higher = more soluble. To be noted: cell cycle stage: G1/S.
Data set [2] concerns HeLa Kyoto. Put plainly: melting temperature (median over replicates), in situ; higher = more thermally stable.
Data set [3] concerns HeLa Kyoto. Description: solubility change mitosis vs G1/S (difference of NP-40 vs SDS log2 ratios) (log2 ratio difference); higher = more soluble in mitosis.
Data set [4] relates to HeLa Kyoto. Put plainly: thermal stability score vs G1/S (z-score of summed log2 fold changes over temperatures); higher = more thermally stable than in G1/S.
Setting [5] is: cell cycle stage: early G1 (4.5 h after nocodazole release).
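Throughout, for melting temperature (median over replicates), in situ: HeLa Kyoto cells synchronized by double thymidine or nocodazole block, proteins quantified by TMT10plex mass spectrometry, three independent biological replicates.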
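Throughout, for solubility change mitosis vs G1/S (difference of NP-40 vs SDS log2 ratios): synchronized HeLa Kyoto cells (double thymidine block for G1/S, nocodazole release for mitosis), protein amounts in NP-40 versus SDS lysates quantified by mass spectrometry, three biological replicates.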
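Throughout, for solubility in G1/S (NP-40 vs SDS abundance): HeLa Kyoto cells arrested at G1/S by double thymidine block, proteins quantified by TMT10plex mass spectrometry in mild NP-40 versus SDS extracts, three biological replicates.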
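Throughout, for thermal stability score vs G1/S (z-score of summed log2 fold changes over temperatures): synchronized HeLa Kyoto cells, proteins quantified by TMT10plex mass spectrometry, three biological replicates, mitosis taken 0.5 h after nocodazole release, G1/S directly after double thymidine block.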

“MFSKLAHLQRFAVLSRGVHSSVASATSVATKKTVQGPPTSDDIFEREYKYGAHNYHPLPVALERGKGIYLWDVEGRKYFDFLSSYSAVNQGHCHPKIVNALKSQVDKLTLTSRAFYNNVLGEYEEYITKLFNYHKVLPMNTGVEAGETACKLARKWGYTVKGIQKYKAKIVFAAGNFWGRTLSAISSSTDPTSYDGFGPFMPGFDIIPYNDLPALERALQDPNVAAFMVEPIQGEAGVVVPDPGYLMGVRELCTRHQVLFIADEIQTGLARTGRWLAVDYENVRPDIVLLGKALSGGLYPVSAVLCDDDIMLTIKPGEHGSTYGGNPLGCRVAIAALEVLEEENLAENADKLGIILRNELMKLPSDVVTAVRGKGLLNAIVIKETKDWDAWKVCLRLRDNGLLAKPTHGDIIRFAPPLVIKEDELRESIEIINKTILSF [OAT]”: in the data set on HeLa Kyoto [1], the “solubility in G1/S (log2)” value came out at 0.246. Moreover, the melting temperature in the data set on HeLa Kyoto [2] (cell cycle stage: G1/S) was 52.8 °C; in the data set with HeLa Kyoto [2] (cell cycle stage: mitosis) it was 53 °C. Moreover, the “solubility change mitosis (log2)” value in the data set on HeLa Kyoto [3] was -0.168. Also, the values for the thermal stability score in the data set on HeLa Kyoto [4] (setting [5]) and in the data set on HeLa Kyoto [4] (cell cycle stage: mitosis) were 0.897 and -0.508, respectively.

For the sequence “MFSLDSFRKDRAQHRQRQCKLPPPRLPPMCVNPTPGGTISRASRDLLKEFPQPKNLLNSVIGRALGISHAKDKLVYVHTNGPKKKKVTLHIKWPKSVEVEGYGSKKIDAERQAAAAACQLFKGWGLLGPRNELFDAAKYRVLADRFGSPADSWWRPEPTMPPTSWRQLNPESIRPGGPGGLSRSLGREEEEDEEEELEEGTIDVTDFLSMTQQDSHAPLRDSRGSSFEMTDDDSAIRALTQFPLPKNLLAKVIQIATSSSTAKNLMQFHTVGTKTKLSTLTLLWPCPMTFVAKGRRKAEAENKAAALACKKLKSLGLVDRNNEPLTHAMYNLASLRELGETQRRPCTIQVPEPILRKIETFLNHYPVESSWIAPELRLQSDDILPLGKDSGPLSDPITGKPYVPLLEAEEVRLSQSLLELWRRRGPVWQEAPQLPVDPHRDTILNAIEQHPVVVISGDTGCGKTTRIPQLLLERYVTEGRGARCNVIITQPRRISAVSVAQRVSHELGPSLRRNVGFQVRLESKPPSRGGALLFCTVGILLRKLQSNPSLEGVSHVIVDEVHERDVNTDFLLILLKGLQRLNPALRLVLMSATGDNERFSRYFGGCPVIKVPGFMYPVKEHYLEDILAKLGKHQYLHRHRHHESEDECALDLDLVTDLVLHIDARGEPGGILCFLPGWQEIKGVQQRLQEALGMHESKYLILPVHSNIPMMDQKAIFQQPPVGVRKIVLATNIAETSITINDIVHVVDSGLHKEERYDLKTKVSCLETVWVSRANVIQRRGRAGRCQSGFAYHLFPRSRLEKMVPFQVPEILRTPLENLVLQAKIHMPEKTAVEFLSKAVDSPNIKAVDEAVILLQEIGVLDQREYLTTLGQRLAHISTDPRLAKAIVLAAIFRCLHPLLVVVSCLTRDPFSSSLQNRAEVDKVKALLSHDSGSDHLAFVRAVAGWEEVLRWQDRSSRENYLEENLLYAPSLRFIHGLIKQFSENIYEAFLVGKPSDCTLASAQCNEYSEEEELVKGVLMAGLYPNLIQVRQGKVTRQGKFKPNSVTYRTKSGNILLHKSTINREATRLRSRWLTYFMAVKSNGSVFVRDSSQVHPLAVLLLTDGDVHIRDDGRRATISLSDSDLLRLEGDSRTVRLLKELRRALGRMVERSLRSELAALPPSVQEEHGQLLALLAELLRGPCGSFDVRKTADD [DHX30]”, the “solubility in G1/S (log2)” value in the data set with HeLa Kyoto [1] is -1.02. For the same sequence, the melting temperature in the data set on HeLa Kyoto [2] (cell cycle stage: G1/S) was 51.1 °C; with HeLa Kyoto [2] (cell cycle stage: mitosis), 51.2 °C. The “solubility change mitosis (log2)” value with HeLa Kyoto [3] is 0.218. In addition, the thermal stability score in the data set with HeLa Kyoto [4] (setting [5]) was -0.697; in the data set on HeLa Kyoto [4] (cell cycle stage: mitosis) it was -0.349.

Consider “MFSQQQQQQLQQQQQQLQQLQQQQLQQQQLQQQQLLQLQQLLQQSPPQAPLPMAVSRGLPPQQPQQPLLNLQGTNSASLLNGSMLQRALLLQQLQGLDQFAMPPATYDTAGLTMPTATLGNLRGYGMASPGLAAPSLTPPQLATPNLQQFFPQATRQSLLGPPPVGVPMNPSQFNLSGRNPQKQARTSSSTTPNRKDSSSQTMPVEDKSDPPEGSEEAAEPRMDTPEDQDLPPCPEDIAKEKRTPAPEPEPCEASELPAKRLRSSEEPTEKEPPGQLQVKAQPQARMTVPKQTQTPDLLPEALEAQVLPRFQPRVLQVQAQVQSQTQPRIPSTDTQVQPKLQKQAQTQTSPEHLVLQQKQVQPQLQQEAEPQKQVQPQVQPQAHSQGPRQVQLQQEAEPLKQVQPQVQPQAHSQPPRQVQLQLQKQVQTQTYPQVHTQAQPSVQPQEHPPAQVSVQPPEQTHEQPHTQPQVSLLAPEQTPVVVHVCGLEMPPDAVEAGGGMEKTLPEPVGTQVSMEEIQNESACGLDVGECENRAREMPGVWGAGGSLKVTILQSSDSRAFSTVPLTPVPRPSDSVSSTPAATSTPSKQALQFFCYICKASCSSQQEFQDHMSEPQHQQRLGEIQHMSQACLLSLLPVPRDVLETEDEEPPPRRWCNTCQLYYMGDLIQHRRTQDHKIAKQSLRPFCTVCNRYFKTPRKFVEHVKSQGHKDKAKELKSLEKEIAGQDEDHFITVDAVGCFEGDEEEEEDDEDEEEIEVEEELCKQVRSRDISREEWKGSETYSPNTAYGVDFLVPVMGYICRICHKFYHSNSGAQLSHCKSLGHFENLQKYKAAKNPSPTTRPVSRRCAINARNALTALFTSSGRPPSQPNTQDKTPSKVTARPSQPPLPRRSTRLKT [CIZ1]”, for which the “solubility in G1/S (log2)” value in the data set on HeLa Kyoto [1] was -0.24. Further, the melting temperature in the data set with HeLa Kyoto [2] (cell cycle stage: G1/S) was 51.5 °C; with HeLa Kyoto [2] (cell cycle stage: mitosis), 53.7 °C. In the data set with HeLa Kyoto [3], the “solubility change mitosis (log2)” value was found to be 0.168. Moreover, the thermal stability score with HeLa Kyoto [4] (setting [5]) stood at 0.59; in the data set with HeLa Kyoto [4] (cell cycle stage: mitosis) it was 2.85.

With “MFSSVAHLARANPFNTPHLQLVHDGLGDLRSSSPGPTGQPRRPRNLAAAAVEEQYSCDYGSGRFFILCGLGGIISCGTTHTALVPLDLVKCRMQVDPQKYKGIFNGFSVTLKEDGVRGLAKGWAPTFLGYSMQGLCKFGFYEVFKVLYSNMLGEENTYLWRTSLYLAASASAEFFADIALAPMEAAKVRIQTQPGYANTLRDAAPKMYKEEGLKAFYKGVAPLWMRQIPYTMMKFACFERTVEALYKFVVPKPRSECSKPEQLVVTFVAGYIAGVFCAIVSHPADSVVSVLNKEKGSSASLVLKRLGFKGVWKGLFARIIMIGTLTALQWFIYDSVKVYFRLPRPPPPEMPESLKKKLGLTQ [SLC25A3]”, in the data set with HeLa Kyoto [1], the “solubility in G1/S (log2)” value is -0.0671. Also, the melting temperature in the data set on HeLa Kyoto [2] (cell cycle stage: G1/S) was 56.3 °C; with HeLa Kyoto [2] (cell cycle stage: mitosis), 56 °C. The “solubility change mitosis (log2)” value in the data set on HeLa Kyoto [3] was -0.0903. For the same sequence, the thermal stability score was -1.42 with HeLa Kyoto [4] (setting [5]) and -3.39 with HeLa Kyoto [4] (cell cycle stage: mitosis).

The record behind these values is the supplement of paper PMC5998384.
